± gives the standard deviation of the averaged measurements.
Experiments:
[1] = tested on: VchCAST RNA-guided transposition machinery (E. coli BL21(DE3) host, lacZ target); assay: relative integration efficiency (T-RL orientation) vs wild-type transposon end (log2 (normalized fold change)); transposon end mutated: left end; higher = more efficient transposition
Summary of the method: (§1)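 Barcoded pools of 1549 left-end or 1849 right-end transposon variants were cloned into a pUC57 mini-transposon donor. Each pool was co-transformed with a T7-driven effector plasmid (CRISPR array, tniQ-cas8-cas7-cas6, tnsA-tnsB-tnsC) into E. coli BL21(DE3) and plated with 0.1 mM IPTG at 37°C for 18 h. Input plasmids and genomic integration junctions were PCR-amplified and Illumina-sequenced, with two biological output replicates and four wild-type barcodes as reference. Relative integration efficiency is output/input barcode abundance fold change, normalised to wild-type barcodes and log-transformed.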

[2] = tested on: VchCAST RNA-guided transposition machinery (E. coli BL21(DE3) host, lacZ target); assay: relative integration efficiency (T-LR orientation) vs wild-type transposon end (log2 (normalized fold change)); transposon end mutated: left end; higher = more efficient transposition
Summary of the method: as §1

Sequence	relative integration efficiency (log2) [1]	relative integration efficiency (log2) [2]
AATGTTGTTGATGTCAACCATAAAGTGATATTTAATAATTATTTATAATCAGCAACTTAACCACAAAACAACCATATATTGATATCTCACAAAACAACCATAAGTTGATATTTTTGTGAATCGAGTATTTCAGCAAAACTACTGCAGTAAGA	-0.694 ± 0.2	-0.718 ± 0.039
AATGTTGTTGATGTGCAACCATAAAGTGATATTTAATAATTATTTATAATCAGCAACTTAACCACAAAACAACCATATATTGATATCTCACAAAACAACCATAAGTTGATATTTTTGTGAATCGAGTATTTCAGCAAAACTACTGCAGTAAG	-6.45 ± 0.8	< -10
AATGTTGTTGATGTGTCAACCATAAAGTGATATTTAATAATTATTTATAATCAGCAACTTAACCACAAAACAACCATATATTGATATCTCACAAAACAACCATAAGTTGATATTTTTGTGAATCGAGTATTTCAGCAAAACTACTGCAGTAA	-1.14 ± 0.25	-2.19 ± 1.3
AATGTTGTTGATGTGTTCAACCATAAAGTGATATTTAATAATTATTTATAATCAGCAACTTAACCACAAAACAACCATATATTGATATCTCACAAAACAACCATAAGTTGATATTTTTGTGAATCGAGTATTTCAGCAAAACTACTGCAGTA	-6.33 ± 0.89	< -10
AATGTTGTTGATGTGTTGATGCAACCATAAAGTGATATTTAATAATTATTTATAATCAGCAACTTAACCACAAAACAACCATATATTGATATCTCACAAAACAACCATAAGTTGATATTTTTGTGAATCGAGTATTTCAGCAAAACTACTGC	-0.31 ± 0.015	-0.829 ± 0.034
AATGTTGTTGATGTGTTGCAACCATAAAGTGATATTTAATAATTATTTATAATCAGCAACTTAACCACAAAACAACCATATATTGATATCTCACAAAACAACCATAAGTTGATATTTTTGTGAATCGAGTATTTCAGCAAAACTACTGCAGT	-6.86 ± 1.7	< -10
AATGTTGTTGCAACCATAAAGTGATATTTAATAATTATTTATAATCAGCAACTTAACCACAAAACAACCATATATTGATATCTCACAAAACAACCATAAGTTGATATTTTTGTGAATCGAGTATTTCAGCAAAACTACTGCAGTAAGAAAGT	-0.203 ± 0.26	-1.44 ± 0.11
TTTTGTGTTGAAACAACCATAAAGTGATAACAAATAATTATTTATAATCAGCAACTTAACCACAAAACAACCATATCTTGATATCGCATAAAACAACCATAAGTTGATATTTTGGTGAAAAGGATATTCCAACCTTCATAGTTTAGTAAGAA	-0.416 ± 0.29	-1.23 ± 0.8
TTTTGTGTTGAAACAACCATAAAGTGATAACAACGAATCAATTAAAATCATAGGCTTAATCGAAAAACAACCATATATTGATATCTCATAAAACAACCATAAGTTGATATTTTGGTGAAAAGGATATTCCAACCTTCATAGTTTAGTAAGAA	0.184 ± 0.29	0.0938 ± 0.43
TTTTGTGTTGAAACAACCATAAAGTGATAACAACGAATCAATTAAAATCATAGGCTTAATCGAAAAACAACCATATCTTGATATCGCACAAAACAACCATAAGTTGATATTTTGGTGAAAAGGATATTCCAACCTTCATAGTTTAGTAAGAA	-0.684 ± 0.39	-0.749 ± 0.52
TTTTGTGTTGAAACAACCATAAAGTGATAACAACGAATCAATTAAAATCATAGGCTTAATCGAAAAACAACCATATCTTGATATCGCATAAAACAACCATAAGTTGATATTTTGGTGAAAAGGATATTCCAACCTTCATAGTTTAGTAAGAA	-0.363 ± 0.32	-0.599 ± 0.63
TTTTGTGTTGAAACAACCATAAAGTGATAACAACGAATCAATTAAAATCATAGGCTTAATCGAAAAACAACCATATCTTGATATCGCATAAAACAACCATAAGTTGATATTTTGGTGAAACGAGTATTTCAGCAAAACTACTGCAGTAAGAA	-0.949 ± 0.35	-1.04 ± 0.28
TTTTGTGTTGAAACAACCATAAAGTGATAACAACGAATCAATTAAAATCATAGGCTTAATCGAAAAACAACCATATCTTGATATCGCATAAAACAACCATAAGTTGATATTTTTGTGAATAGGATATTCCAACCTTCATAGTTTAGTAAGAA	0.192 ± 0.22	-0.791 ± 0.29
TTTTGTGTTGAAACAACCATAAAGTGATATTTACGAATCAATTAAAATCATAGGCTTAATCGAAAAACAACCATATCTTGATATCGCATAAAACAACCATAAGTTGATATTTTGGTGAAAAGGATATTCCAACCTTCATAGTTTAGTAAGAA	0.179 ± 0.12	-0.00585 ± 0.47
TTTTGTGTTGATGCAACCATAAAGTGATAACAACGAATCAATTAAAATCATAGGCTTAATCGAAAAACAACCATATCTTGATATCGCATAAAACAACCATAAGTTGATATTTTGGTGAAAAGGATATTCCAACCTTCATAGTTTAGTAAGAA	-0.528 ± 0.32	-0.426 ± 0.46

Source: the supplement of paper PMC10201428
